Test [1] deals with trkC variant s5a immunoadhesin (trkC Val297 to Thr420 replaced with trkA Ser277 to Val402) (human). Nature of the test: saturation binding with 125I-NGF on immunoadhesin.
The target is the same in test [2]. As to the kind of experiment: competitive displacement of labelled NGF on immunoadhesin.
Test [3] deals with T1, trkA-IgG immunoadhesin (chimera of human trkA extracellular domain with human IgG-1 Fc) (human, UniProt P04629 33-408).
T1 construct: also called trkA-IgG chimera; native trkA; not shown: human IgG-1 heavy chain constant region from aspartic acid 216 of the hinge to residue 441 (Kabat numbering, 114 = first)
Nature of the test: competitive displacement of iodinated neurotrophin from trk-IgG.

Test [4] addresses T2, trkB-IgG immunoadhesin (chimera of human trkB extracellular domain with human IgG-1 Fc) (human, UniProt Q16620 32-422).
T2 construct: also called trkB full length receptor (as immunoadhesin); not shown: human IgG-1 heavy chain constant region from aspartic acid 216 of the hinge to residue 441 (Kabat numbering, 114 = first)
Nature of the test: competitive displacement of labelled BDNF from trkB-IgG by unlabelled NT4/5.

Test [5] addresses T2, trkB-IgG immunoadhesin (chimera of …). Nature of the test: competitive displacement of labelled BDNF from trkB-IgG by unlabelled NT3.
Test [6] has as its target T3, trkC-IgG immunoadhesin (chimera of human trkC extracellular domain with human IgG-1 Fc) (human, UniProt Q16288 32-413).
T3 construct: also called trkC wild-type; trkC full length receptor (as immunoadhesin); not shown: human IgG-1 heavy chain constant region from aspartic acid 216 of the hinge to residue 441 (Kabat numbering, 114 = first)
As to the kind of experiment: competitive displacement of labelled BDNF on immunoadhesin.

For test [7], the target named is T2, trkB-IgG immunoadhesin (chimera of …). Nature of the test: competitive displacement of labelled BDNF from trkB-IgG by unlabelled BDNF.

T2 sequence (Q16620 32-422 limits assumed, change not shown): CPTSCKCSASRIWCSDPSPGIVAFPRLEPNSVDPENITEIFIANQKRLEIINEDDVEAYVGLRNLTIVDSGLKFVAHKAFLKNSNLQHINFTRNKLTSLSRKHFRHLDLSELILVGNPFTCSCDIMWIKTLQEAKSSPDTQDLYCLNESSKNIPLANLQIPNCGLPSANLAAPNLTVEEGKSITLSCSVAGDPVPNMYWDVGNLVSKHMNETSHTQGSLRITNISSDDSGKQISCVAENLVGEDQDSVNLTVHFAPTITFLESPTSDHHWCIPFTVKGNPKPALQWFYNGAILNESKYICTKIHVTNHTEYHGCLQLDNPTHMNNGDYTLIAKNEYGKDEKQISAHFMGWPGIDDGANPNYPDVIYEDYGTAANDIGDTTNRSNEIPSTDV
trkC variant s5a immunoadhesin (trkC Val297 to Thr420 replaced with trkA Ser277 to Val402) (human), sequence (chain, as listed by the source mutant): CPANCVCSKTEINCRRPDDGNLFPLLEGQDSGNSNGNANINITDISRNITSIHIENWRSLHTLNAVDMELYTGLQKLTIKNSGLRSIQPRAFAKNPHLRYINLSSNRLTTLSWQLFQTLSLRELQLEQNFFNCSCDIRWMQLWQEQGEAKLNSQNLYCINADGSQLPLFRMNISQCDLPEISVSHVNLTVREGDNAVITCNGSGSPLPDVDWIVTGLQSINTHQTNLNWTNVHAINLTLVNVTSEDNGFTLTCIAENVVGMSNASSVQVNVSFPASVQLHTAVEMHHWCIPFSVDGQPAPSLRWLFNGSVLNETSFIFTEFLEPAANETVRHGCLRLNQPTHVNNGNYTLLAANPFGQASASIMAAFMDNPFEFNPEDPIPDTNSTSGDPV
T1 sequence (P04629 other isoform, or with tags, fused parts or gaps mutant limits assumed): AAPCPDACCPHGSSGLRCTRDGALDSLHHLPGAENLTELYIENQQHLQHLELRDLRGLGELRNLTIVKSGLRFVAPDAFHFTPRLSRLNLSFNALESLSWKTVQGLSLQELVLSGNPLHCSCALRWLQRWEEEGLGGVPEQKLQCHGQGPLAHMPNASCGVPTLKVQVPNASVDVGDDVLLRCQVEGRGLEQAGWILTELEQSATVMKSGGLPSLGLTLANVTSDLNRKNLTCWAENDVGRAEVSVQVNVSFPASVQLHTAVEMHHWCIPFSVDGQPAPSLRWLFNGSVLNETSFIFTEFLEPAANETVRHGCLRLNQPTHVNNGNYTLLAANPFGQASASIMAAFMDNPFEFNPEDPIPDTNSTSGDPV

Consider “nerve growth factor (NGF) (from UniProt P01138 122-241) (ligand)”, for which the dissociation constant Kd (as a rule, the equilibrium constant for the complex coming apart) in test [1] stood at 0.0386 nM. Also, in test [2], the half-inhibitory concentration (IC50) – broadly, the concentration at which inhibition is half-maximal – worked out at 0.0393 nM.

B1: neurotrophin-4/5 (NT-4/5) (ligand)
chain: GVSETAPASRRGELAVCDAVSGWVTDRRTAVDLRGREVEVLGEVPAAGGSPLRQYFFETRCKADNAEEGGPGAGGGGCRGVDRRHWVSECKAKQSYVRALTADAQGRVGWRWIRIDTACVCTLLSRTGRA
notes: also called NT5
For the molecule B1, the binding result in test [3] is reported as “binds”. In test [4], this molecule displayed a 50% inhibitory concentration (IC50) of 0.2 nM.

B2: neurotrophin-3 (NT-3) (ligand)
chain: YAEHKSHRGEYSVCDSESLWVTDKSSAIDIRGHQVTVLGEIKTGNSPVKQYFYETRCKEARPVKNGCRGIDDKHWNSQCKTSQTYVRALTSENNKLVGWRWIRIDTSCVCALSRKIGRT
In test [5], B2 gave an IC50 of 18 nM. This lies in the double-digit nanomolar range.

B3: brain-derived neurotrophic factor (BDNF) (ligand)
chain: HSDPARRGELSVCDSISEWVTAADKKTAVDMSGGTVTVLEKVPVSKGQLKQYFYETKCNPMGYTKEGCRGIDKRHWNSQCRTTQSYVRALTMDSKKRIGWRFIRIDTSCVCTLTIKRGR
notes: also called NT-2
In the case of B3, in test [6], the binding result is “no binding”. Moreover, the IC50 in test [7] is 0.081 nM.

These data come from patent publication US20090081707A1 (published 2009).
